Consider 16 molecules from article PMC10963267, “Rapid discovery of high-affinity antibodies via massively parallel sequencing, ribosome display and affinity screening” (Nature Biomedical Engineering, 2023).

The term Kd denotes the concentration at which binding is half-saturated. High values mean weaker binding, low ones tighter binding.

Numbering of substitutions follows the chain as printed. In names and notes the source's numbering stands. Some results are limits rather than exact numbers.

The chains are these.
B1: anti-HEL nanobody C1 (VHH)
VHH: QVQLQESGGGLVQAGGSLRLSCAASGSIFWAGYMGWYRQAPGKEREFVAAIDYGANTYYADSVKGRFTISRDNAKNTVYLQMNSLKPEDTAVYYCAVDRQPYYRRDNSHLYWGQGTQVTVSS
notes: synthetic nanobody from the yeast surface display library, picked as a random colony after R3 MACS; Framework is that of the library; source: E. coli, periplasmic extract (vector pSBinit)
B2: anti-HEL nanobody M15 (VHH)
VHH: QVQLQESGGGLVQAGGSLRLSCAASGTISSQKLMGWYRQAPGKEREFVAAINDGATTNYADSVKGRFTISRDNAKNTVYLQMNSLKPEDTAVYYCAAYYDVRGYYWGTFGYWGQGTQVTVSS
notes: synthetic nanobody from the yeast surface display library; also called VHH-M15; source: E. coli, periplasmic extract (vector pSBinit)
B3: anti-HEL nanobody C2 (VHH)
VHH: QVQLQESGGGLVQAGGSLRLSCAASGNISADASMGWYRQAPGKEREFVAAIARGATTYYADSVKGRFTISRDNAKNTVYLQMNSLKPEDTAVYYCAVDQYDVTKRYIGHIYWGQGTQVTVSS
notes: as for B1
B4: anti-HEL nanobody M5 (VHH)
VHH: QVQLQESGGGLVQAGGSLRLSCAASGSIFYYTDMGWYRQAPGKEREFVASIGYGGITYYADSVKGRFTISRDNAKNTVYLQMNSLKPEDTAVYYCAVQRSFESYGYWGHVYWGQGTQVTVSS
notes: synthetic nanobody from the yeast surface display library; also called VHH-M5; source: E. coli, periplasmic extract (vector pSBinit)
B5: anti-HEL nanobody M6 (VHH)
VHH: B4 VHH with F29S, Y30R, Y31D, T32P, G52S, Y53G, G55T, I56T
notes: synthetic nanobody from the yeast surface display library; also called VHH-M6; source: E. coli, periplasmic extract (vector pSBinit)
B6: anti-HER2 Fab HER20003 (Fab, V domains shown)
VH: QVQLVQSGAEVKKPGESLKISCKGSGYSFTSYWIAWVRQMPGKGLEYMGLIYPGDSDTKYSPSFQGQVTISVDKSVSTAYLQWSSLKPSDSAVYFCARHDVAYCSSSRCLTWPEYFQHWGQGTLVTVSS
VL: QSVLTQPPSVSAAPGQKVTISCSGSSSNIGNNYVSWYQQLPGTAPKLLIYGHTNRPAGVPDRFSGSKSGTSASLAISGFRSEDEADYYCASWDYTLSGWVFGGGTKLTVL
notes: as the heavy chain of m31 (G98A) with another CDR H3; as the light chain of m31; source: CHO cells, transiently transfected, purified (CaptureSelect CH1-XL)
B7: anti-HER2 Fab HER20007 (Fab, V domains shown)
VH: B6 VH with A102G, S105M, R108N, L110A, T111K
VL: B6 VL
notes: as the heavy chain of m31 (G98A) with another CDR H3; as the light chain of m31; From the HER2affmat library; source: CHO cells, transiently transfected, purified (CaptureSelect CH1-XL)
B8: anti-HER2 Fab HER20015 (Fab, V domains shown)
VH: B6 VH with A102G, S105D, S106T, S107P, R108T, L110D, T111K
VL: B6 VL
notes: as the heavy chain of m31 (G98A) with another CDR H3; as the light chain of m31; From the ML set (ml/mut); source: CHO cells, transiently transfected, purified (CaptureSelect CH1-XL)
B9: anti-HER2 Fab HER20009 (Fab, V domains shown)
VH: B6 VH with T111E
VL: B6 VL
notes: as for B7
B10: anti-HER2 Fab HER20011 (Fab, V domains shown)
VH: B6 VH with A102G, Y103L, R108N, L110A, T111K
VL: B6 VL
notes: as for B7
B11: anti-HER2 Fab HER20025 (Fab, V domains shown)
VH: B6 VH with A102G, S105D, S106T, S107P, R108T, L110N, T111K
VL: B6 VL
notes: as the heavy chain of m31 (G98A) with another CDR H3; as the light chain of m31; From the random set (random/mut); source: CHO cells, transiently transfected, purified (CaptureSelect CH1-XL)
B12: anti-HER2 Fab HER20006 (Fab, V domains shown)
VH: B6 VH with A102G, Y103W, S105T, R108N, L110A, T111K
VL: B6 VL
notes: as for B7
B13: anti-HER2 Fab HER20008 (Fab, V domains shown)
VH: B6 VH with S105D, S107D, L110A, T111K
VL: B6 VL
notes: as for B7
B14: anti-HER2 Fab HER20013 (Fab, V domains shown)
VH: B6 VH with A102G, S106T
VL: B6 VL
notes: as the heavy chain of m31 (G98A) with another CDR H3; as the light chain of m31; Top clone of the ML set (ml/mut); source: CHO cells, transiently transfected, purified (CaptureSelect CH1-XL)
B15: anti-HER2 Fab HER20010 (Fab, V domains shown)
VH: B6 VH with T111D
VL: B6 VL
notes: as for B7
B16: anti-HER2 Fab HER20004 (Fab, V domains shown)
VH: B6 VH with A102G, Y103Q, S105D, R108N, L110A, T111K
VL: B6 VL
notes: as for B6

The target of the first assay is T1, hen egg lysozyme (HEL), biotinylated (Gallus gallus (hen egg white), UniProt P00698, biotin).
T1 construct: hen egg lysozyme, bought as HEL–biotin; In deep screening it was pre-complexed 1:1 with AF532-labelled streptavidin; in BLI it was loaded on a streptavidin tip; source: bought: GeneTex (GTX82960-pro)
T1 sequence (P00698 19-147): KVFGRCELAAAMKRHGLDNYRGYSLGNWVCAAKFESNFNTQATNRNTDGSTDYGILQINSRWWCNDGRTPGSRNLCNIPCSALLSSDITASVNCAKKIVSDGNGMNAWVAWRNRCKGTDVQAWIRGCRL
As to the kind of experiment: BLI; HEL–biotin (25 µg ml^−1, 400 s) loaded on SA tip; nanobody from periplasmic extract at 50 nM in SuperBlock PBS; association 400 or 500 s, dissociation 600 s; referenced to a non-loaded SA tip; one concentration, 1:1 fit; Octet Red384. The settings on record: one partner purified. On the technique in general: Biolayer interferometry detects binding as a change in optical thickness at a sensor tip.
Turning to B1, the binding result is on record as “binds”.
The molecule B2 showed an equilibrium dissociation constant (Kd) of 9.81 nM. That is a single-digit nanomolar value.
Turning to B3, the binding result is given as “binds”.
The molecule B4 had an equilibrium dissociation constant (Kd) of 19 nM.
Consider B5, for which binding was characterised by a dissociation constant (Kd) of 14.2 nM.

Another assay has as its target T2, human epidermal growth factor receptor 2 (HER2), biotinylated (Homo sapiens, UniProt P04626, biotin).
T2 construct: biotinylated human HER2, bought; also called ERBB2; source: bought: Acro Biosystems (HE2-H822R)
The experiment in a line: BLI; human HER2–biotin (5 µg ml^−1, 30 s) loaded on SA tip; purified Fab at 20 nM; DPBS with 0.1% BSA and 0.02% Tween 20; association 300 s, dissociation 600 s; one concentration, 1:1 fit. To be noted: both partners purified.
B6 registered a Kd of 2.8 nM.
Take B7: the binding result is on record as “binds”.
In the case of B8, the “fold improvement in affinity over G98A” value was over 1000 fold.
The same measure, in the same setting: the same measure for B9: about 300 fold.
B10: the binding result is given as “binds”.
With B11, the Kd was found to be 0.283 nM.
Take B12: the “fold improvement in affinity over G98A” value is about 300 fold.
In the case of B13, the binding result is listed as “binds”.
Molecule B14 gave a Kd of 0.0607 nM.
Take B15: the “fold improvement in affinity over G98A” value is about 300 fold.
For B16, the Kd was 3.4 nM. This lies in the single-digit nanomolar range.
